Test results taken from the nanobody polyreactivity screen of Harvey et al. (2022).

Assay: yeast display, Sf9 membrane polyspecificity reagent, FACS + sequencing; frameworks hold sequencing errors
In short: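 In a synthetic yeast display library (Saccharomyces cerevisiae BJ5465), nanobody expression was induced with galactose for 36–48 hours. FACS gates were set low and high (top ~1%) using anti-HA fluorescence for expression and streptavidin fluorescence for binding of the Sf9 membrane reagent. Each polyreactivity label is drawn from the gate of origin.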

Sequence	polyreactivity (PSR sort gate)
QVQLVESGGGLVQARGILRLSCAASGSTFYTYTAMGWYRQAPGKERELVAAITWRGGSTYYADSVKGRFTIARDNAKNTVYLQMNSLKPQDSAVSSCAATLNRYGYDYWGQGTQVTVSS	high polyreactivity
QVQLVESGGGLVQAGGSLRLSCAASGSNFPYYALGWYRQAPGNERELVATITYRGGSTNYADSVKGRFTISRDNAKNTVYLQMNSLKPEDTAVYYCADYGYVLASPYPYSFVKLGYWGQGTQVTVSS	low polyreactivity
QVQLVESGGGLVQAGGSLRLSCAASGIIFVYYAMGWYRQAPGKERELVAAISTRGGSTYYADSVKGRFTISRDNAKNTVYLQMNSLKPEDTAVYYCAATYVYRYVPRIPSEAYDYWGQGTQVTVSS	high polyreactivity
QVQLVESGGGLVLAGGSLRLSCAASGRSSSSYAMGWYRQAPGKEREFVAAIRSSGGSTSYADSVKGRFTISRDNAKNTVYLQMNSLKPEDTAVYYCAVRKHFVVSYDYWGQGTQVTVSS	high polyreactivity
QVQLVESGGGLVQAGGSLRLSCAASGSIFKSNAMGWYRQAPGKERELVAAISNGGITNYADSVKGRFTISRDNAKNTVFLQMNSLKPEDTAVYYCATSDVREIWVDYWGQGTQVTVSS	low polyreactivity
QVQLVESGGGLVQAGGSLRLSCAASGRTFSVNAMGWYRQAPGNERELVAARRTGDSTNYADSVKGRFTFSRDNAKYTVYLPMNSLKPEDTSVDYCAADVWGSSAQRGWRKYYYWGQGTQVTVSS	high polyreactivity
QVQLVESGGGLVQAGGSLRLSCAASGSIFASYAMGWYRQAPGKERELVAAIRSSGGRTYYADSVKGRFTISRDNAKYTVYLQMYSLKPEDTAVYYCNDRRPGYRPYGYDYWGQGTQVTVSS	high polyreactivity
QVQLVESGGGLVQAGGSLRLSCAASGSIFSNYDMGWYRQAPGKERELVAGITRSGTNTYYADSVKGRFTISRDNAKNTVYLKMNRLKPEDTAVYYCAAAIRPGMDYWGQGTQVTVSS	high polyreactivity
QVQLVESGGGLVQEGGSLRLSCDASGLILLPYARGWYRQAPGKERELVAAISCSGGSTYYADSVKGRFTISRDNAKNTVYLQMNSLKPEVTAVYYCPARPNRQGFYYWGQGTQVTVSS	high polyreactivity
QVQLVESGGGLVQAGGSLRLSCAASGFTFVAYAMGWYRQAPGKERELVAAITWSGSRTYYADSVKGRFTISRDNAKNTVYLQMNSLKPEDTAVYYCAARKTEGHYGYWGQGTQVTVSS	high polyreactivity
QVQLVESRGALVQAGGSLRLSCAATGSSFNRYAMRWYRQAPRKERELVAAISSGRTTNYADSVKGRFTISRDNAKNTVYLQMNSLKPEDTAVYYCNRKFRYSSHTNYYYWGQGTQVTVSS	high polyreactivity
QVQLAESGGGLVQAGGSLRLSCAASGRTFSQYGMGWYRQAPGKERELVARIRRSGGSTYYADSVKGRFTISRDNAKNTVYLQMNSLKPEDTAVYYCNADGQPYTRYGYWGQGTRVTVSS	high polyreactivity
QVQLVESGGGLVQAGGSLRLSCAASGRIFSYYAMGWYRQAPGKERELVAAISWSGGRTYYADSVKGRFTISRDNAKNTVYLQMNSLKPEDTAVYYCAARLKLYLPRSAYDYWGQGTQVTVSS	high polyreactivity
QGQLVESGGGLVQAGGSLRLSCAASGRIVRPNAMGWYRQAPGKETEFVAAISSGGSTYYADSVKGRFTISRDNAKNSVYLQMNSLKPEDTAVYYCAADLSNRPYYRQGYDYWGQGTQVTVSS	high polyreactivity
QVQLVESGGGLVQAGGSLRLSCAASGRTFHYYVMGWYRQAAGKERELVAAISRSGGNTYYADSVKGRFTISRDNAKNTVYLQMNSLKPEDTAVYYCAAALSAYVKWDYYYWGQGTQVTVSS	low polyreactivity
QVQLVESGGGLVQAGGSLRLSCAASGSIFYIYAMGWYRQAPGKERELVARISTGGSTHYADSVKGRFTISRDNAKNTVYLQMNSLKPEDTAVYYCDAPYWLWDGEGEYDYWGQGTQVTVSS	low polyreactivity
QDQLVESGGGLVQAGCSLRLSCAASGRTFKDYAMGWYRQAPGKERELVAAITYRDRTYYADSVKGRFTISRDNAKNTVYLQMNSLNTEDTAVYYCNAEGFSGMDYWGKGTQVTVSS	low polyreactivity
QVQLVETGGGLVQAGGSLRLSCAASGRTFTRYAMGWYRQAPGKERELVAAISSSGASTYYADSVKGRFTISRDNAKNTVYLQMNSLKPEDTAVYYCAAKQTRPSGFGYWGQGTQVTVSS	high polyreactivity
QVQLVESGGGLVQAGGSLRLSCAASGFTFRTYAMGWYRQAPGKEREFVAAITTSGGSTYYADSVKGRFTISRDNAKNTVYLQMNSLKPEDTAVYYCAAKKATVVYRMEYWGQGTQVTVSS	high polyreactivity
QVQLVESGGGLVQAGGSLRLSCAASGRIFFANTMGWYRQAPGKERELVAAISLSSGSTYYADSVKGRFTISRDNAKNTVYLQMNSLKPEDTAVYYCAARGYSHVASRLYYYWGQGTQVTVSS	high polyreactivity
QVQLVESVGGLVQAGGSLRLSCAASGFTFHGYAMGWYRQAAGKERELVAAIRSGDRTYYADSVKGRFTISRDNAKNTVYLQMNSLKPEDTAVYYCDAGSYFRDSYARIYRWFYYWGQGTQVTVSS	low polyreactivity
QVQLEESCGGLVQAGGRLRLSCAASGSIFRFNVMGWYRHAPGKERDLVAAITRGDSTNYADSVKGRFTISRDNAKITVYLQMNILIQDDSAVYYCAAGYYYYLRDHDYWGQGTQVTVSS	low polyreactivity

Sequence	polyreactivity (PSR sort gate)
QVQLVESGGGLVQAGGSLRLSCAASGFIFKGYAMGWYRQAPGKERELVAAISKGGGNTYYADSVMGRFSISRDNAKNTVYLQMNSLKPEDTAVYYCAAVPTRYRSYTYTYGGYNYWGQGTQVTVSS	high polyreactivity
QVQLVESGGGLVQAGGSLRLSCAACGRTFRRNAMGWYREAPGKERELVAAISTSGGRTYYADSVKGRFTISRDNAKNTVYLQMNSLKPEDTAVYYCAADIPQTDGYWGQGTQVTVSS	low polyreactivity
QVQLQESGGGLVQASGSLRLSCAASGNIFPDYLMGWYRLAPGKEREFVANITGGSTTNYADSVKGRFTISRDNATNTVYLQMNSLKPEDTAVYYCEVNFGTVVLYLYWGQGTQVTVSS	high polyreactivity
QVQLVESGGGLVQAGGSLRLSCASSGRTFTYNAMGWYRQAPGKERELVAVIRYSGGTTYYADSVKGRFTISRDNAKNTVYFQMNRLIPEDTAVYYCAADSWSRSVNYYYWGQGTQVTVSS	low polyreactivity
QVQLVESGGGLVQAGGSLRLSCAASGRTSDGYAMGWYRQAPGKERELVAGITEGGGDTYYADSVKGRFTISRDNAKNTVYLQMNSLKPEDTAVYYCNAVEGSRLPYDYWGQGTQVTVSS	low polyreactivity
QVQLVESGGGLVQAGGSLRISCAASGRTLGYNAMGWYRQAPGKERELVAAISWSGGSTYYADSVKGRFTISRDNAKNTVYLQMNSLNPEDTAVYYCAARNNRYPLYNYWGQGTQVTVSS	low polyreactivity
QVQLVESGGGLVQAGGSLRLSCAASGFTFQYYTMGWYRQAPGKERELVAAISGSGGRTYYADSVKGRFTISRDNAKNTVYLQMNSLKPEDTAVYYCAKVYNRVYYGKGDYWGQGTQVTVSS	high polyreactivity
QGQRVESGGGLVQAGGSLRLSCAASGFIFAHNAMGWYRPAPGTETEFVAAISANTGNTYYADSVKGRFTISRDNAKNTVYLQMNSLKPEDTAVYYCRSFYYWGQGTQVTVSS	high polyreactivity
QVQLVESGGGLVQAGGRLRVSCAASGRTFYYYGMGWYRQAPGKESELVATISWSGGSTYYADSVKGRFTISRDNAKNTVYLQMNSLKPEDTEVYYCAADGQFLYDHIEVDYWGQGTQVTVSS	low polyreactivity
QVQLVESGGGLVQAGGSLRLSCAASGFTFSYYVMGWYRQAAGKERELVAAINRGGSTNYADSVKRRFTISRDNAKNTVYLQMNSLKPEDTAVYYCAARFPGYGYWGQGTEVTVSS	high polyreactivity
QVQLVESGGGLVQAGGSLRLSCAASGRTFYIYAMGWYRQAPGKERELVAAITYGGGRTFYADSVKGRFTISRDNAKNTVYLQMNSLKPEDTAVYYCAATVRGKRSTYDYWGQGTQVTVSS	high polyreactivity
QVQLVESGGCLVQAGGSLRLSCAASGRTFVNNAMGWYRQAPGKYRELVAAITRSGGLTYSADSVKGRFTISRDHAKNTVYLQMTMLKPEYTAVYDCATAIVRLRHDDDWGQGTQVTVSS	high polyreactivity
QVQLVESGGGLVQAGGSLRLSCTASGFTFFSNAMGWYRQAPVKEREFVASISRSGGRTYYADSVKGRFTISRDNEKNTVYLQMNSLKPEDTAVYYCAADVPYYLHNPRYGYWGQGTQVTVSS	high polyreactivity
QVQLVETGGVLVQAGGSLRLSCAASGITFYRYAMGWYRQAPGKERELVATITSGVSTFYADSVKGRFTISRDNAKNTVYLQMKSLKQEDTAVYFCAAESVWNWYYTTAGMDYWGLGTQVTVSS	high polyreactivity
QVQLVESGGGLVQAGGSLRLSCAASGSTFLQNAMGWYRQAPGKEREFVAAISYTGANTYYADSVKGRFTISRDNAKNTVYLQMNSLKPEDTAVYYCAAYARGVRRYRRYDYWGQGTQVTVSS	high polyreactivity
QVQLVESGGGLVQAGGSLRLSCAASGITFIWYAMGWYRQAPGKERELVAAISTSGGSTYYADSVKGRFTISRDNAKNTVYLQMNSLKPEDTAVYYCAAVSGGVSRSYDRYYWGQGTQVTVSS	high polyreactivity
QVQLVESGGALVQAGGSLRLSCAASGGILQYNAMGWYRQAPGKEREFVAAITTSGGSTYYADSVKGRFTISRDNAKNTVYLQMNSLKPEDTAVYYCAADSWWGIYYSGYDYWGQGSQVTVSS	low polyreactivity
QVQLVESGGGLVQAGGSLRLSCAACGSIFEFNTMGWYRQAPGKERELVAAISSSGGRTYYADSVKGRFTISRDNAKNSVYLQMNSLKPEDTGVYYCNARRLVHNPDYDYWGQGTQVTVSS	high polyreactivity
QVQLVESGGGLVQAGGSLRLSCAASGRIFGYNVMGWYIQAPGKERELVAAISWGTGSTYADSMKGRFTISRDNAKKTVYLQMNSLIPVDTAVYYCAADSFIPPYDHWGQGTQVTVSS	low polyreactivity
QVQLVESGGGLVQAGGSLRLSCPASGRTFWWYAMGWYRQAPGKEREIVAAISQRGTSTYYADSVKGRFTISRDNAKNTVYLQMNSLNPEDTAVYYCAADRPYYPLKYDYWGQGTQVTVSS	high polyreactivity
QVQLVESGGGLVQAGGSLRLSCAASGITLDVNAMGWYRQAPGKERELVADITWSDDTTYYADSVKGRFTISRDNAKNTVYLQMNSLKPEDTAVYYCAADVSVSFHPRGYDYWGQGTQVTVSS	low polyreactivity
